Patent US20250262210A1 (TRUSTEES OF COLUMBIA UNIVERSITY IN THE CITY OF NEW YORK, published 2025)

Tests used:
Assay in all cases: IP/MS, LZTR1 wild type-FLAG, U87
VPS18 = molecular target: T1, VPS18 (human, UniProt Q9P253 2-973)
T1 sequence (looked up): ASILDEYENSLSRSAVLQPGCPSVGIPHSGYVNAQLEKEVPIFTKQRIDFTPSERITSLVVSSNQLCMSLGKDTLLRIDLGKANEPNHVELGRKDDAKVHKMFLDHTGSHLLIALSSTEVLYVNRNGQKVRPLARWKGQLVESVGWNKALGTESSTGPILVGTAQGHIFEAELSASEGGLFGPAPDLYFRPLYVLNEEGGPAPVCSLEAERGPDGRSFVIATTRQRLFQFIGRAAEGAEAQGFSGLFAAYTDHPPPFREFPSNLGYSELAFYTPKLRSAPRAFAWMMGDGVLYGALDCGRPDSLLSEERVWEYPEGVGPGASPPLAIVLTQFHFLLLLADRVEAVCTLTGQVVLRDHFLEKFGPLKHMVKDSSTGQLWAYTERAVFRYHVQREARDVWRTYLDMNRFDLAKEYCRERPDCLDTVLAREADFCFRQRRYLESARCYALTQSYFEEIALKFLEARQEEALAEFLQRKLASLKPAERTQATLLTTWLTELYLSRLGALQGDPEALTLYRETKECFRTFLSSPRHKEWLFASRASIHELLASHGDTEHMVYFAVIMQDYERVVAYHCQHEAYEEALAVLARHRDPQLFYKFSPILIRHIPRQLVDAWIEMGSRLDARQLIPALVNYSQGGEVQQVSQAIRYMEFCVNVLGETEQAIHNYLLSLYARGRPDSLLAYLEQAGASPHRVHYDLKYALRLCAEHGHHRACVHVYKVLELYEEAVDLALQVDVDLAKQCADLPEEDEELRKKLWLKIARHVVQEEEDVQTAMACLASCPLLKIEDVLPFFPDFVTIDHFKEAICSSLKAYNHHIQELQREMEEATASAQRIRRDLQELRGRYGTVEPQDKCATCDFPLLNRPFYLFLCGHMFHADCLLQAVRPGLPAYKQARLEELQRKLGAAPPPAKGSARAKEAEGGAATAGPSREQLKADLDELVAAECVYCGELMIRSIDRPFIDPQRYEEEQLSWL
Outline: (§1)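 Extracted peptides in 3% acetonitrile/0.1% formic acid ran on a 50 cm C18 column into an Orbitrap Fusion, with MaxQuant identification and spectral counting.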

UBE4B = molecular target: T2, UBE4B (human, UniProt O95155 1-1302, limits assumed)
T2 sequence (looked up): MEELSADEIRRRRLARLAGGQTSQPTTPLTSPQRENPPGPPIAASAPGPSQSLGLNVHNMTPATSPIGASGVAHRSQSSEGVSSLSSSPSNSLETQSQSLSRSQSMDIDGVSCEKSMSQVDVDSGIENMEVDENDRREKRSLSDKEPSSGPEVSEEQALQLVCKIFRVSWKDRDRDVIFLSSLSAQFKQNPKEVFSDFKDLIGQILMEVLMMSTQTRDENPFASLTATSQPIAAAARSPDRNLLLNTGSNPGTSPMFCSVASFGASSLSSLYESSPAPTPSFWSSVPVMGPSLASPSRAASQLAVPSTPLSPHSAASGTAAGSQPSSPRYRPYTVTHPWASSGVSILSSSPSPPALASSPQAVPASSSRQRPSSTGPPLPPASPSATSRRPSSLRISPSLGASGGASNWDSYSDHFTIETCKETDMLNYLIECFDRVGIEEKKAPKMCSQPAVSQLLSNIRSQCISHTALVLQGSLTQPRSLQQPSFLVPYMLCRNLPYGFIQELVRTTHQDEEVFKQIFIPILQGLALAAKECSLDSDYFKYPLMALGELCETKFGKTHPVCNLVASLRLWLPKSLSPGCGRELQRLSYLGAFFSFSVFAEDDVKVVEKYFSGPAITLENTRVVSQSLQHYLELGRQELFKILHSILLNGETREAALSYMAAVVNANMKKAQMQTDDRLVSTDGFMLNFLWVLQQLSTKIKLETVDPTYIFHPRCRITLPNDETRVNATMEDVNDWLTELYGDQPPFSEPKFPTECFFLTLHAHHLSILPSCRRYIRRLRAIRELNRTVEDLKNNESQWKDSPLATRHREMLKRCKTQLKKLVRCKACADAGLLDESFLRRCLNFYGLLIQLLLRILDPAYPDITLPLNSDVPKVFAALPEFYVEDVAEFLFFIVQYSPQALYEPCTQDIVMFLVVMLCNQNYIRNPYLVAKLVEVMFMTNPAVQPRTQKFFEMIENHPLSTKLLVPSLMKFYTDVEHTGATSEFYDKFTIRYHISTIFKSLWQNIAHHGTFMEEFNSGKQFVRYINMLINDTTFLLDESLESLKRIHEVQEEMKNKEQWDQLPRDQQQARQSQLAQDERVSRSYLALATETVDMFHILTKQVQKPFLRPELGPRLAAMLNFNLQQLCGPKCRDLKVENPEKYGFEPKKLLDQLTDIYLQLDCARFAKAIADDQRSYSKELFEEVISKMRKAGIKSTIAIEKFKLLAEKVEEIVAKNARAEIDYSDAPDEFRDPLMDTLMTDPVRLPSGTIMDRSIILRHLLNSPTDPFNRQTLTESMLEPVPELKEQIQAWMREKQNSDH
Outline: as §1

PAPPA = PAPPA (human, UniProt Q13219 82-1627)
Sequence of PAPPA (Q13219 82-1627 limits assumed): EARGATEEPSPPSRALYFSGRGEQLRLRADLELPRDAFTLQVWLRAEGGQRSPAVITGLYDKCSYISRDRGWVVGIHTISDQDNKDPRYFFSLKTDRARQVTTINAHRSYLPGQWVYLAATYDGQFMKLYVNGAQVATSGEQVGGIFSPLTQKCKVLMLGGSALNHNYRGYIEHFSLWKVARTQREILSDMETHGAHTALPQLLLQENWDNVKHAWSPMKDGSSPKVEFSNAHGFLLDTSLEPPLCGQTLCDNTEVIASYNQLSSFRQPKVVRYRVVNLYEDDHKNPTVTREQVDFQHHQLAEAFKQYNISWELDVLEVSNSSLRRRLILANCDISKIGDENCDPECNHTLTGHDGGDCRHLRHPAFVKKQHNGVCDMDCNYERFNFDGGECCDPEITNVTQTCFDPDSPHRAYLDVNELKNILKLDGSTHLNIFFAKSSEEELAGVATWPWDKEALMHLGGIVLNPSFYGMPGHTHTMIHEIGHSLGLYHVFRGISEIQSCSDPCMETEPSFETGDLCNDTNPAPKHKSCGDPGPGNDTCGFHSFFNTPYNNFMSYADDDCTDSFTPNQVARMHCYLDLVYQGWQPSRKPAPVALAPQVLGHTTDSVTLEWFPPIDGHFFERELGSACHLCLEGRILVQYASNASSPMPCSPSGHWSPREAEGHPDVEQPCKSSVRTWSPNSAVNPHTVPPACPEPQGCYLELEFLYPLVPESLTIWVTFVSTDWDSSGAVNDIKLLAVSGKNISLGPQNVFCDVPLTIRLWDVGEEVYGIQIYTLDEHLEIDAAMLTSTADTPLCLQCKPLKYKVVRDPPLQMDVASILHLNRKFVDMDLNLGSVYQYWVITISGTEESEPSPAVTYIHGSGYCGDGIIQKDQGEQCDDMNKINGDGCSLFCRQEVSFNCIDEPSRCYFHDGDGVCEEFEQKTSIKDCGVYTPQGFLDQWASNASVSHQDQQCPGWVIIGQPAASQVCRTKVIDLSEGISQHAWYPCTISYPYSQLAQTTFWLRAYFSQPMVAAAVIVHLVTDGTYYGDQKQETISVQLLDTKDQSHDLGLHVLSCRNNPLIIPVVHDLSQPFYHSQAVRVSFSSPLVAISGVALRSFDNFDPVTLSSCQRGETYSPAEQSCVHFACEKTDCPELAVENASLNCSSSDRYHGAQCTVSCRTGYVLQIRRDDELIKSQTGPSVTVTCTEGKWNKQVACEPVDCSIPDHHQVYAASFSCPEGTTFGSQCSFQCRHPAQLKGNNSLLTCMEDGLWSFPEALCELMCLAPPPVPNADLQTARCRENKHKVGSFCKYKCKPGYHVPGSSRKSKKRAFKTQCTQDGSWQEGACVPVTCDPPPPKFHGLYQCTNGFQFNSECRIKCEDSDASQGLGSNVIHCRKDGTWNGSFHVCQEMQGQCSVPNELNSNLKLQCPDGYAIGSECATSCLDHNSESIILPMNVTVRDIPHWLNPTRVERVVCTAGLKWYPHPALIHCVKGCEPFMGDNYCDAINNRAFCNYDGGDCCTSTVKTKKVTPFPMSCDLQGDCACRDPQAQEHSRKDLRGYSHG
Outline: as §1

binding result (VPS18): binds
binding result (UBE4B): binds
binding result (PAPPA): binds
B1: LZTR1-FLAG (other, human, UniProt Q8N653 1-840, looked up)
chain: MAGPGSTGGQIGAAALAGGARSKVAPSVDFDHSCSDSVEYLTLNFGPFETVHRWRRLPPCDEFVGARRSKHTVVAYKDAIYVFGGDNGKTMLNDLLRFDVKDCSWCRAFTTGTPPAPRYHHSAVVYGSSMFVFGGYTGDIYSNSNLKNKNDLFEYKFATGQWTEWKIEGRLPVARSAHGATVYSDKLWIFAGYDGNARLNDMWTIGLQDRELTCWEEVAQSGEIPPSCCNFPVAVCRDKMFVFSGQSGAKITNNLFQFEFKDKTWTRIPTEHLLRGSPPPPQRRYGHTMVAFDRHLYVFGGAADNTLPNELHCYDVDFQTWEVVQPSSDSEVGGAEVPERACASEEVPTLTYEERVGFKKSRDVFGLDFGTTSAKQPTQPASELPSGRLFHAAAVISDAMYIFGGTVDNNIRSGEMYRFQFSCYPKCTLHEDYGRLWESRQFCDVEFVLGEKEECVQGHVAIVTARSRWLRRKITQARERLAQKLEQEAAPVPREAPGVAAGGARPPLLHVAIREAEARPFEVLMQFLYTDKIKYPRKGHVEDVLLIMDVYKLALSFQLCRLEQLCRQYIEASVDLQNVLVVCESAARLQLSQLKEHCLNFVVKESHFNQVIMMKEFERLSSPLIVEIVRRKQQPPPRTPLDQPVDIGTSLIQDMKAYLEGAGAEFCDITLLLDGHPRPAHKAILAARSSYFEAMFRSFMPEDGQVNISIGEMVPSRQAFESMLRYIYYGEVNMPPEDSLYLFAAPYYYGFYNNRLQAYCKQNLEMNVTVQNVLQILEAADKTQALDMKRHCLHIIVHQFTKVSKLPTLRSLSQQLLLDIIDSLASHISDKQCAELGADI
notes: Expressed in HEK 293T, HeLa or U87 cells; used as cell lysate; also called LZTR1 wild type-FLAG; LZTR1 WT; not shown: FLAG tag at the C-terminus
